Values belong to the binder of their own block, whether it stands above or below them.
Assays:
[1] = molecular target: T1, human IL-4Rα on cells (human PBMC B cells and CD4+ T cells, Daudi cells, HEK-Blue IL-4/IL-13 cells, myeloid … (human, UniProt P24394 26-825)); experiment: cell-based or functional assay
T1 sequence: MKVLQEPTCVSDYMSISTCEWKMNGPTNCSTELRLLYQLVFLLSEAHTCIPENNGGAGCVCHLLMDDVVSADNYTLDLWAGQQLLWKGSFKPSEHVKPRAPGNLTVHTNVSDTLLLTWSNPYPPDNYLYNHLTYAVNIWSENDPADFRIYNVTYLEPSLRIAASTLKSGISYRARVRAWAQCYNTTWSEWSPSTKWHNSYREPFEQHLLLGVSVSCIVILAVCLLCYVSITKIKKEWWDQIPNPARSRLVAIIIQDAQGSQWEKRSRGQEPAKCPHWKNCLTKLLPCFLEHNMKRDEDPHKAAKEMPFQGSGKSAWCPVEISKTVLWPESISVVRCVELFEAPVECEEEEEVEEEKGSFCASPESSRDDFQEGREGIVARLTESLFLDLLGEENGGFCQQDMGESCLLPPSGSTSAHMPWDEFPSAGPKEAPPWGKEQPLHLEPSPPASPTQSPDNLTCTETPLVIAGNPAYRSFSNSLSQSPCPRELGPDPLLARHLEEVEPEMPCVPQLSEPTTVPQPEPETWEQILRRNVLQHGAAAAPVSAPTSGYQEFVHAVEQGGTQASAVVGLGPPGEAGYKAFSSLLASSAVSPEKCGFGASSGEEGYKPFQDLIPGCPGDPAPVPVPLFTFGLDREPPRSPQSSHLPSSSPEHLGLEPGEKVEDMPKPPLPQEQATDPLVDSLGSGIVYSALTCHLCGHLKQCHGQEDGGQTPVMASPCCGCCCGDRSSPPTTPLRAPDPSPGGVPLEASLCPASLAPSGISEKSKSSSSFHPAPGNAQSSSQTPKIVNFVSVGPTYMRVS

[2] = molecular target: T1, human IL-4Rα on cells (human PBMC B …); experiment: cell-based or functional assay; remark: listed apart in the source
[3] = molecular target: T1, human IL-4Rα on cells (human PBMC B …); experiment: flow cytometry on human PBMCs, B cells, Alexa Fluor 647 labelled antibody
Experimental: (§1) Example 3b. Binding to B cells and T cells: Binding of the exemplified anti-human IL-4Rα antibodies to B cells and T cells was tested in a Fluorescence Activated Cell Sorting (FACS) assay. […] Freshly isolated cells PBMCs were resuspended at 2×10⁶ cells/mL and allowed to rest for 15 minutes at room temperature, then plated at 100 μL/well into a round bottom 96-well plate (COSTAR®) and washed with FACS buffer (PBS containing 2% fetal bovine serum from Corning®). Exemplified anti-human IL-4Rα antibodies and the respective control IgG antibodies conjugated to Alexa Fluor® 647 according to manufacturer's protocol (Thermo Fisher Scientific) were added to the wells at 66.67 nM and diluted 4-fold in duplicate. Equivalent volume of 2× antibody cocktail containing: Human TruStain FcX™. FITC anti-human CD3 Antibody, Alexa Fluor® 700 anti-human CD4 Antibody (all from Biolegend®) and CD20 Monoclonal Antibody (2H7), PerCP-Cyanine5.5 (Thermo Fisher Scientific) was then added to the wells. Cells were incubated at 4° C. for 30 minutes, washed twice with FACS buffer and resuspended in a final volume of 100 μL FACS buffer. Viability dye, Sytox™ blue (Thermo Fisher Scientific), was added and the samples were analyzed via a flow cytometer (LSRFortessa™ X-20; BD BIOSCIENCES). Data analysis was performed using FlowJo software and statistical analysis was performed using GraphPad Prism 9. […]

[4] = molecular target: T2, human FcγRI (CD64) extracellular domain (human, UniProt P12314 16-292); experiment: SPR (Biacore), antibody captured on protein A, FcγR ECD as analyte, 25 °C
T2 construct: extracellular domain
Experimental: Unreacted sites were blocked with a 7 minute injection of ethanolamine at 10 μL/minute. Injections of 2×10 μL of glycine, pH 1.5, was used to remove any noncovalently associated protein. Running buffer was 1×HBS-EP+(TEKNOVA, P/N H8022). The FcγR extracellular domains (ECDs)-FcγRI (CD64), FcγRIIA_131R, and FcγRIIA_131H (CD32a), FcγRIIIA_158V, FcγRIIIA_158F (CD16a), and FcγRIIb (CD32b) were produced from stable CHO cell expression and purified using IgG Sepharose and size exclusion chromatography. For FcγRI binding, antibodies were diluted to […] in running buffer, and approximately 150 RU of each antibody was captured in FCs 2 through 4 (RU captured). FC1 was the reference FC, therefore no antibody was captured in FC1. […] Duplicate injections of each concentration were injected over all FCs at 40 μL/minute for 120 seconds followed by a 1200 second dissociation phase. Regeneration was performed by injecting 15 μL of 10 mM glycine, pH 1.5, at 30 μL/minute over all FCs. […] The affinity (KD) was calculated using either steady state equilibrium analysis with the Scrubber 2 Biacore Evaluation Software or a “1:1 (Langmuir) binding” model in BIA Evaluation. […] The affinity (KD) was calculated using the steady state equilibrium analysis with the Scrubber 2 Biacore Evaluation Software. […]

[5] = molecular target: T3, human FcγRIIA_131H (CD32a) extracellular domain (human, UniProt P12318 34-217); experiment: SPR (Biacore), antibody captured on protein A, FcγR ECD as analyte, steady state, 25 °C
T3 construct: extracellular domain
T3 sequence (looked up): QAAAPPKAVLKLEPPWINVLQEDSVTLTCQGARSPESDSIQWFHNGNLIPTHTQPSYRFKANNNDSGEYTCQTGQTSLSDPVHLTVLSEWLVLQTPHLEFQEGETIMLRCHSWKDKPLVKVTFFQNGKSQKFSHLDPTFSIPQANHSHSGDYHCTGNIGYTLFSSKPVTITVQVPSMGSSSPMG
Experimental: (§2) Unreacted sites were blocked with a 7 minute injection of ethanolamine at 10 μL/minute. Injections of 2×10 μL of glycine, pH 1.5, was used to remove any noncovalently associated protein. Running buffer was 1×HBS-EP+(TEKNOVA, P/N H8022). The FcγR extracellular domains (ECDs)-FcγRI (CD64), FcγRIIA_131R, and FcγRIIA_131H (CD32a), FcγRIIIA_158V, FcγRIIIA_158F (CD16a), and FcγRIIb (CD32b) were produced from stable CHO cell expression and purified using IgG Sepharose and size exclusion chromatography. For FcγRI binding, antibodies were diluted to […] in running buffer, and approximately 150 RU of each antibody was captured in FCs 2 through 4 (RU captured). FC1 was the reference FC, therefore no antibody was captured in FC1. […] Duplicate injections of each concentration were injected over all FCs at 40 μL/minute for 120 seconds followed by a 1200 second dissociation phase. Regeneration was performed by injecting 15 μL of 10 mM glycine, pH 1.5, at 30 μL/minute over all FCs. Reference-subtracted data was collected as FC2 FC1, FC3-FC1, and FC4-FC1 and the measurements were obtained at 25° C. The affinity (KD) was calculated using either steady state equilibrium analysis with the Scrubber 2 Biacore Evaluation Software or a “1:1 (Langmuir) binding” model in BIA Evaluation. For FcγRIIa, FcγRIIb, and FcγRIIIa binding, antibodies were diluted to 5 μg/mL in running buffer, and approximately 500 RU of each antibody was captured in FCs 2 through 4). FC1 was the reference FC. […] Duplicate injections of each concentration were injected over all FCs at 40 μL/minute for 60 seconds followed by a 120 second dissociation phase. Regeneration was performed by injecting 15 μL of 10 mM glycine, pH 1.5, at 30 μL/minute over all FCs. Reference-subtracted data was collected as FC2-FC1, FC3-FC1, and FC4-FC1, and the measurements were obtained at 25° C. The affinity (KD) was calculated using the steady state equilibrium analysis with the Scrubber 2 Biacore Evaluation Software. Each receptor was assayed at least two times.

[6] = molecular target: T4, human FcγRIIb (CD32b) extracellular domain (human, UniProt P31994 43-217); experiment: as above
T4 construct: extracellular domain
T4 sequence (looked up): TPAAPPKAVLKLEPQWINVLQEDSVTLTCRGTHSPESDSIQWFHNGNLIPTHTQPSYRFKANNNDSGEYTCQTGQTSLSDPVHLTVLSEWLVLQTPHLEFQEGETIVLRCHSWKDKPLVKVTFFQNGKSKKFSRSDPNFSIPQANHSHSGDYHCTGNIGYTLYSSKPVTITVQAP
Experimental: as §2

[7] = molecular target: T1, human IL-4Rα on cells (human PBMC B …); experiment: flow cytometry on human PBMCs, CD20 B cells, Alexa Fluor 647 labelled antibody, percent IL-4Rα positive cells
Experimental: as §1

[8] = molecular target: T1, human IL-4Rα on cells (human PBMC B …); experiment: flow cytometry on human PBMCs, CD4-positive T cells, Alexa Fluor 647 labelled antibody, percent IL-4Rα positive cells
Experimental: as §1

[9] = molecular target: T5, IL-4Rα (target of the affinity engineering of Ab10; form not stated) (UniProt P24394 26-232, limits assumed); experiment: affinity during CDR mutagenesis of Ab10 (engineered as a Fab); method and antigen form not stated; order of magnitude only
T5 sequence (looked up): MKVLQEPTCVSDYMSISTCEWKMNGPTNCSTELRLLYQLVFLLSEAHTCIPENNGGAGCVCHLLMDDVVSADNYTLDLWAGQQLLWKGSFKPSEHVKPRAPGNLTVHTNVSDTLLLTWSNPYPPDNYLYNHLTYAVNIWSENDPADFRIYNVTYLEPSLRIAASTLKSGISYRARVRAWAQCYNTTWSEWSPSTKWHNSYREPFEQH

T2 sequence (P12314 16-292): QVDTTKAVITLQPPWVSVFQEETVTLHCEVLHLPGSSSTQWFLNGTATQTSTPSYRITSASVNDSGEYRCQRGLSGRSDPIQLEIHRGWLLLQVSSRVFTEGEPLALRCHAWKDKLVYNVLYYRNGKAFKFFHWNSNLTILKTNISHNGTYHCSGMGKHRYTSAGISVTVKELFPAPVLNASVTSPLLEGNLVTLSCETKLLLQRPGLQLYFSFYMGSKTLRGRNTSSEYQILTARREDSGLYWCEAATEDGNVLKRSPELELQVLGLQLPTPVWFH

IL-4 IC50 (nM): inhibition of IL-4 induced SEAP activity in HEK-Blue IL-4R and IL-13R expressing cells [1]: 0.07 nM
IL-13 IC50 (nM): inhibition of IL-13 induced SEAP activity in HEK-Blue IL-4R and IL-13R expressing cells [1]: 0.51 nM
Inhibition of IL-4 induced B cell proliferation, IC50 [2]: 0.95 nM
EC50 [3]: 0.27 nM
Kd [4]: 0.0428 nM
Kd [5]: 1240 nM
Kd [6]: 3020 nM
EC50 [7]: 0.14 nM
EC50 [8]: 28.7 nM
B1: anti-human IL-4Rα antibody Ab7 (antibody, human IgG1, kappa)
heavy: not shown
light: DIQMTQSPSAMSASVGDRVTITCRASQDISNYLAWFQQKPGKVPTRLIYAASSLQSGVPSRFSGSGSGTEFTLTISSLQPEDFATYYCLQWSSYPRTFGQGTKVEIKRTVAAPSVFIFPPSDEQLKSGTASVVCLLNNFYPREAKVQWKVDNALQSGNSQESVTEQDSKDSTYSLSSTLTLSKADYEKHKVYACEVTHQGLSSPVTKSFNRGEC
notes: Human IgG1 backbone

B2: Ab10 variant with the LCDR3 substitutions H91W, N92S (antibody, V domains shown)
VH: QVQLVESGGGLVQPGGSLRLSCAASGFTFSISSMNWVRQAPGKGLEWVSYISRATGAIYYADSVKGRFTISRNNAKNSLYLQMNSLRDEDTAVYYCAREPVFDYWGQGTLVTVSS
VL: DIQMTQSPSAMSASVGDRVTITCRASQGISNYLAWFQQKPGKVPTRLIYAASSLQSGVPSRFSGSGSGTEFTLTISSLQPEDFATYYCLQWSSYPRTFGQGTKVEIK
notes: also called the resulting antibody
Kd [9]: ~0.01 nM
